# According to patent US20240150465A1 (Chugai, published 2024):
# Residue numbers refer to the chain shown, from its start.
# T1: recombinant human DLL3 (human, UniProt Q9NYJ7 27-492)
# T1 sequence: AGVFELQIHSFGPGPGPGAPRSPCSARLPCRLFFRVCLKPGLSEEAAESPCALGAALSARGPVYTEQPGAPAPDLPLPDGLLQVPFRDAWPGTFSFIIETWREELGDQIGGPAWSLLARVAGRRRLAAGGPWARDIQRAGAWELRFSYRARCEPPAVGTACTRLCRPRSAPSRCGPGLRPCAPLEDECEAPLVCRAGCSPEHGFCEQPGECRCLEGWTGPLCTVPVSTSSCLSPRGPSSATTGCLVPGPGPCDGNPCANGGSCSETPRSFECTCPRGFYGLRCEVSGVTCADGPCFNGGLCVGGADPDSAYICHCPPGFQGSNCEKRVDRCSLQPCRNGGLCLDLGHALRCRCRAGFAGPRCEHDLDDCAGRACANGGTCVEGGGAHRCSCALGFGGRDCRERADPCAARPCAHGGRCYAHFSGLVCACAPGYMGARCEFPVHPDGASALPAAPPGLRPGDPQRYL
# T2: Cynomolgus DLL3 ECD with Myc-tag on N-terminus and His-tag on C-terminus (cynomolgus)
# T2 construct: also called Myc-cynoDLL3-His; Cyno DLL3
# T2 chain: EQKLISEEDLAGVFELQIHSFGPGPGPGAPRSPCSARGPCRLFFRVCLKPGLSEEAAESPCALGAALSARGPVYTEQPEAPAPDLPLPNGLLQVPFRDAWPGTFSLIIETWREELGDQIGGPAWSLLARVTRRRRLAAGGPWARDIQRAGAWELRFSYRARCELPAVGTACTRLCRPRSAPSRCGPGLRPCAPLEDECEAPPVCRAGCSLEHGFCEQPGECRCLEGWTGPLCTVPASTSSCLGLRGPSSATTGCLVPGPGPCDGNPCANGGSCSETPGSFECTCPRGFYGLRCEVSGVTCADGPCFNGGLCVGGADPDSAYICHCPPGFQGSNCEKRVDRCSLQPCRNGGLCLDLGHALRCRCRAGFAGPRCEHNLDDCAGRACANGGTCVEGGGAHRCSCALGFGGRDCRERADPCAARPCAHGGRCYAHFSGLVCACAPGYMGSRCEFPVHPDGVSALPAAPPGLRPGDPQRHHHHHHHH
# B1: DL306-SG1 (antibody, human IgG1, kappa, V domains shown)
# VH: EVQLQQSGPELVKPGASVKMSCRASGYTFTDYYMKWVKQSHGKSLEWIGDINPNNGDTFYNQKFKGKATLTIDKSSSTAYMQLNSLTSDDSAVYYCARDGNYAYFDYWGQGTTLTVSS
# VL: DIVLTQSPASLAVSLGQRATISCRASKSVSTSGYSYMHWYQQKPGQPPKLLIFLASNLESGVPARFSGSGSGTDFTLNIHPVEEEDAATYYCQHSRHLPWTFGGGTKLEIKR
# notes: Variable regions of a previously reported anti-DLL3 antibody on SG1/SK1; Also used biotin-labelled as a first antibody
# B2: DLL3-6-SG1 (antibody, human IgG1, kappa, V domains shown)
# VH: QVQLQESGPGLVKPSETLSLTCTVSGASISSFYWSWIRQPPGKGLEWIGYIYYSGTTNYNPSLKSRVTISVDTSKNQFSLKLSSVTAADTAVYYCARIAVAGFFFDYWGQGTLVTVSS
# VL: EIVLTQSPGTLSLSPGERATLSCRASQSVNKNYLAWYQQKPGQAPRLLIYGASSRATGIPDRFSGSGSGTDFTLTISRLEPEDFAVYYCQQYDRSPLTFGGGTKVEIKR
# notes: Variable regions of a previously reported anti-DLL3 antibody on SG1/SK1; Used as a second antibody only
# B3: DLL3-4-SG1 (antibody, human IgG1, kappa, V domains shown)
# VH: B2 VH with A27G, F32Y, I51V, R97S, A101T, F104Y
# VL: B2 VL with A19V, S28R, K31N, K40R, V105L
# notes: as for B2
# B4: DLL3-22-SG1 (antibody, human IgG1, kappa, V domains shown)
# VH: B2 VH with A27D, F32Y, S35T, N76S, R97S, A101R
# VL: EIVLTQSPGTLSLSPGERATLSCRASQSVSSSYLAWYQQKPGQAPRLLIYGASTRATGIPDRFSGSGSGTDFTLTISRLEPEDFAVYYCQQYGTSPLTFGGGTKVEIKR
# notes: as for B2
# B5: DL312-SG1 (antibody, human IgG1, kappa, V domains shown)
# VH: EVKLVESGGGLVQPGGSLSLSCAASGFTFTDYYMNWVRQPPGKALEWLALIRNKANGYTTEYNASVKGRFTISRDNSQNILYLQMNALRAEDSATYYCARDSDGYYEYYFDYWGQGTTLTVSS
# VL: DIQMTQSPSSLSASLGERVSLTCRASQEISDYLSWLQQKPDGTIKRLIFAASTLDSGVPKRFSGSRSGSDFSLSISSLESEDFADYYCLQYASYPYTFGSGTKLEIKR
# notes: as for B1
# B6: DL301-SG1 (antibody, human IgG1, kappa, V domains shown)
# VH: QVQLQQSGADLVRPGTSVKVSCKASGYAFTNYLIEWIKQRPGQGLEWIGVMNPGSGGTHYSEKFRGKATLTADKSSSTAYMQLISLTSDDSAVYFCARSDYDYVTYAMDYWGQGTSVTVSS
# VL: DIKMTQSPSSMYASLGERVTITCKASQDINSYLIWFQQKPGKSPKTLIYRTNRLVDGVPSRFSGSGSGQDYSLTISSLEYGDMGIYYCLQYDEFPFTFGSGTKLEIKR
# notes: as for B1
# B7: DL309-SG1 (antibody, human IgG1, kappa, V domains shown)
# VH: QVQLQQSGGDLMKPGASVKISCKAAGYTFSNYYIEWVKQRPGHGLEWIGEILPGSGSTTYNEKFKGKASFTADTSSNTAYMQLSSLTSEDSAVYYCARWGAREPGFPYWGQGTLVTVSA
# VL: DIVMTQSQKFMSTSVGDRVSVTCKASQNVGTNVAWYQQKPGQSPKALIYSASYRYSGVPDRFTGSGSGTDFTLTISNVQSEDLAEYFCQQYNNYPLTFGAGTKLELKR
# notes: as for B1
# B8: D30316AE03/TR01 (bispecific antibody, V domains shown)
# VH 1: EVQLVESGGGLVQPGGSLRLSCAASGFTFSNYGVSWVRQAPGQGLEWMGYIDIAFGRTYYASWVTGRITINPDTSKNQFSLQLNSVTPEDTAVYYCARVALVVAGVAYYGMDVWGQGTLVTVSS
# VL 1: DIVMTQSPDSLAVSLGERATINCQASQNIYSYLSWYQQKPGKAPKLLIYRTSTLASGVPDRFSGSGSGTDFTLKISRVEAEDVGVYYCQSYYYSSGSSYGAFAFGQGTKVEIK
# VH 2: QVQLVESGGGVVQPGGSLRLSCAASGFTFSNAWMHWVRQAPGKGLEWVAQIKDKSQNYATYVAESVKGRFTISRADSKNSIYLQMNSLKTEDTAVYYCRYVHYAAGYGVDIWGQGTTVTVSS
# VL 2: DIVMTQSPLSLPVTPGEPASISCRSSQPLVHSNRNTYLHWYQQKPGQAPRLLIYKVSNRFSGVPDRFSGSGSGTDFTLKISRVEAEDVGVYYCGQGTQVPYTFGQGTKLEIK
# notes: IgG-type anti-DLL3/CD3 bispecific made by Fab arm exchange
# Biological target: T1, recombinant human DLL3
# Assay: Octet binning on SA sensor; Antibody A (biotinylated, loaded first): DL312-SG1; then 20 nM human DLL3, then 80 nM Antibody B
# Procedure: (§1) Octet (registered trademark) RED384 (Fortebio) was used to perform competitive binding assays by epitope binning for a panel of antibodies. A biotinylated antibody (DL301-SG1, DL306-SG1, DL309-SG1, DL312-SG1, D30316AE02-SG1, and D30841AE05-SG1) at 40 nM was first loaded to a streptavidin (SA) biosensor. Next, the sensor is exposed to 20 nM of human DLL3, followed by exposure to 80 nM of second antibody. The second antibodies are DL301-SG1, DL306-SG1, DL309-SG1, DL312-SG1, D30316AE02-SG1, D30841AE05-SG1, DLL3-14-SG1, DLL3-22-SG1, DLL3-4-SG1 and DLL3-6-SG1. Raw data was processed using ForteBio's Data Analysis Software 7.0 and the antibody pairs were assessed for competitive binding. Additional binding by the second antibody indicates an unoccupied epitope (non-competitor), while no binding indicates epitope blocking (competitor).
# (§2) The competition ratio of antibody B to antibody A was calculated using the following equation: Competition Ratio (Antibody B to Antibody A)=[Binding Response (Antibody B-Antigen)]/[Binding Response (Antigen-Antibody A)]
row,competition ratio (Antibody B to Antibody A),Binder
1,1.2,B1
2,1.3,B2
3,1.3,B3
4,1.3,B4
5,0.2,B5
6,1.3,B6
7,1.5,B7

# Biological target: T1, recombinant human DLL3
# Assay: Octet binning on SA sensor; Antibody A (biotinylated, loaded first): D30316AE02-SG1; then 20 nM human DLL3, then 80 nM Antibody B
# Procedure: as §1, §2
row,competition ratio (Antibody B to Antibody A),Binder
1,1.5,B1
2,1.3,B2
3,1.3,B3
4,1.3,B4
5,1.4,B5
6,1.3,B6
7,1.4,B7

# Biological target: T2, Cynomolgus DLL3 ECD with Myc-tag on …
# Assay: SPR Biacore 8K, 37 C, pH 7.4; bispecific captured on anti-human Fc, DLL3 as analyte, 1:1 model
# Procedure: (§3) Binding affinity of anti-DLL3 arm in the anti-DLL3/CD3 antibodies to human or cynomolgus DLL3 at pH 7.4 were assessed at 37 degrees C. using Biacore 8K instrument (GE Healthcare). Anti-human Fc (GE Healthcare) was immobilized onto all flow cells of a CM4 sensor chip using amine coupling kit (GE Healthcare). The bispecific antibodies were captured onto the anti-Fc sensor surfaces, and then recombinant human or cynomolgus DLL3 was injected over the flow cell. All antibodies and analytes were prepared in ACES pH 7.4 containing 20 mM ACES, 150 mM NaCl, 0.05% Tween 20, 0.005% NaN₃. Sensor surface was regenerated each cycle with 3M MgCl₂.
Kd,koff,kon,Binder
11.7 pM,2.72e-05 s⁻¹,2.32e+06 M⁻¹ s⁻¹,B8

# Biological target: T1, recombinant human DLL3
# Assay: as above
# Procedure: as §3
Kd,koff,kon,Binder
26.1 pM,6.11e-05 s⁻¹,2.34e+06 M⁻¹ s⁻¹,B8

# Biological target: T1, recombinant human DLL3
# Assay: Octet binning on SA sensor; Antibody A (biotinylated, loaded first): DL309-SG1; then 20 nM human DLL3, then 80 nM Antibody B
# Procedure: as §1, §2
row,competition ratio (Antibody B to Antibody A),Binder
1,0.9,B1
2,1,B2
3,1,B3
4,0.9,B4
5,1.1,B5
6,1.2,B6
7,-0.1,B7

# Biological target: T1, recombinant human DLL3
# Assay: Octet binning on SA sensor; Antibody A (biotinylated, loaded first): DL306-SG1; then 20 nM human DLL3, then 80 nM Antibody B
# Procedure: as §1, §2
row,competition ratio (Antibody B to Antibody A),Binder
1,0,B1
2,1.3,B2
3,1.3,B3
4,1.3,B4
5,1.4,B5
6,1.3,B6
7,1.4,B7

# Biological target: T1, recombinant human DLL3
# Assay: Octet binning on SA sensor; Antibody A (biotinylated, loaded first): DL301-SG1; then 20 nM human DLL3, then 80 nM Antibody B
# Procedure: as §1, §2
row,competition ratio (Antibody B to Antibody A),Binder
1,1.1,B1
2,1.2,B2
3,1.2,B3
4,1.2,B4
5,1,B5
6,-0.1,B6
7,1.4,B7

# Biological target: T1, recombinant human DLL3
# Assay: Octet binning on SA sensor; Antibody A (biotinylated, loaded first): D30841AE05-SG1; then 20 nM human DLL3, then 80 nM Antibody B
# Procedure: as §1, §2
row,competition ratio (Antibody B to Antibody A),Binder
1,0,B1
2,1.3,B2
3,1.3,B3
4,1.3,B4
5,1.4,B5
6,1.3,B6
7,1.5,B7

# Biological target: recombinant human CD3eg protein (CD3 epsilon-gamma, heterodimer of CD3 epsilon and CD3 gamma) (human, UniProt P07766 23-126; P09693 23-116)
# Sequence (P07766 23-126 limits assumed, chain 1 of 2): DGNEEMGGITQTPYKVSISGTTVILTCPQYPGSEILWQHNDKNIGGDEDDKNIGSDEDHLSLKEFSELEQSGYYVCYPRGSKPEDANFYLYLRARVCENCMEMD
# Sequence (P09693 23-116 limits assumed, chain 2 of 2): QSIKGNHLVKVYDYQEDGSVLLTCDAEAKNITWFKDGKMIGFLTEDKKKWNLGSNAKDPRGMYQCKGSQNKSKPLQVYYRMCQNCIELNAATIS
# Assay: SPR Biacore 8K, 37 C, pH 7.4; bispecific captured on anti-human Fc, human CD3eg as analyte, 1:1 model
# Procedure: as §3, with “of the anti-CD3” for “of anti-DLL3”, “arm of” for “arm in”, “anti-DLL3/CD3 bispecific” for “anti-DLL3/CD3”, “to CD3” for “to human or cynomolgus DLL3”, “7.4 was” for “7.4 were”, “human CD3eg proteins (CD3 epsilon-gamma, heterodimer of CD3 epsilon and CD3 gamma)” for “human or cynomolgus DLL3”
Kd,koff,kon,Binder
127000 pM,0.0169 s⁻¹,134000 M⁻¹ s⁻¹,B8
